B4: P3A1 his myc (VNAR)
VNAR: TRVDQTPRTATKETGESLTINCVLTDTSYGLYSTSWFRKNPGTTDWERMSIGGRYVESVNKGAKSFSLRIKDLTVADSATYYCKAREARHPWLRQWYDGAGTVLTVNQ
notes: VNAR; also called P3A1 6xHis myc
B5: Peptide 5 (peptide)
peptide: RSTIYGSRLRIRNLDTTDTGYFQ
notes: linear ROR1 ECD peptide

Assay [1] concerns the target T1, human ROR1-hFc fusion protein (extracellular domain) (human).
T1 construct: Whole entry 'human ROR1-Fc (CHO)'; also called hROR1; huROR1-Fc
As to the kind of experiment: SPR, ROR1-hFc on chip.

For assay [2], the target named is T2, human ROR2-hFc fusion protein (extracellular domain) (human).
T2 construct: Whole entry 'human ROR2-Fc (CHO)'; also called hROR2
The assay is described as follows: SPR, ROR2-hFc on chip.

The target in assay [3] is T3, human ROR1 on the surface of ROR1hi human cancer cell lines (human, UniProt Q01973 30-937).
T3 construct: whole, on cells; Cell line is named under assay; also called cell surface ROR1
As to the kind of experiment: flow cytometry, A549 (ROR1hi) cells.

The target in assay [4] is T4, recombinant human ROR1 (hROR1), construct not stated (human, UniProt Q01973 30-403, limits assumed). As to the kind of experiment: SPR, hROR1 on chip.
The target in assay [5] is T4, recombinant human ROR1 (hROR1), …. As to the kind of experiment: SPR, hROR1 on chip. The source holds these as a separate data set.
The target of assay [6] is T2, human ROR2-hFc fusion protein …. As to the kind of experiment: SPR, ROR2-hFc on chip. The source holds these as a separate data set.
The target in assay [7] is T4, recombinant human ROR1 (hROR1), …. As to the kind of experiment: SPR, hROR1 on chip with competitor P3A1 dimer pre-captured.
Assay [8] concerns the target T1, human ROR1-hFc fusion protein …. The assay is described as follows: SPR, human ROR1 ECD-Fc on chip.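 Also: SPR binding kinetics of VNAR and VNAR-Fc molecules run at a range of concentrations over immobilised target, rate and affinity constants fitted with QDat software.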
In assay [9] the target is T5, mouse ROR1-Fc fusion protein (mouse).
T5 construct: Whole entry 'mouse ROR1-Fc (CHO)'; also called mROR1
The assay is described as follows: SPR, mouse ROR1 on chip.

The target in assay [10] is T1, human ROR1-hFc fusion protein …. As to the kind of experiment: SPR, ROR1-hFc on chip. The source holds these as a separate data set.
Assay [11] deals with T3, human ROR1 on the surface of ROR1hi …. As to the kind of experiment: flow cytometry, A549 (ROR1hi) cells, 4°C.
The target of assay [12] is T1, human ROR1-hFc fusion protein …. The assay is described as follows: Octet or SPR, hROR1.
For assay [13] the target is unchanged. As to the kind of experiment: SPR, ROR1-hFc on chip. This is another data set of the same source.
For assay [14], the target named is T6, rat ROR1-Fc fusion protein (rat).
T6 construct: Whole entry 'rat ROR1-Fc (CHO)'; also called rROR1
The assay is described as follows: SPR, rat ROR1 on chip.

Assay [15] concerns the target T4, recombinant human ROR1 (hROR1), …. As to the kind of experiment: SPR, hROR1 on chip with competitor B1 pre-captured.
The target of assay [16] is T1, human ROR1-hFc fusion protein …. As to the kind of experiment: SPR, ROR1-hFc on chip. This is another data set of the same source.
A further assay addresses T7, Fz-Kr-Fc.
T7 construct: also called human ROR1 (FZKR domains)-Fc (CHO)
The assay is described as follows: analytical SEC and SDS-PAGE of fractions.

A further assay addresses T8, Peptide 1 (human).
T8 construct: linear ROR1 ECD peptide
T8 peptide: YMESLHMQGEIENQI
As to the kind of experiment: direct ELISA on coated peptide (in PBS), panel P3A1 direct binding ELISA.

In another assay the target is T9, Peptide 2 (human).
T9 construct: linear ROR1 ECD peptide; insoluble in PBS
T9 peptide: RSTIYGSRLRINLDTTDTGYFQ
The description is as above.

Another assay addresses T10, Peptide 3 (human).
T10 construct: linear ROR1 ECD peptide
T10 peptide: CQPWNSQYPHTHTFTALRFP
Described as above.

Another assay addresses T11, Peptide 4 (human).
T11 construct: linear ROR1 ECD peptide
T11 peptide: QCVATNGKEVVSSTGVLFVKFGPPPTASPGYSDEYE
The description is as above.

Assay [17] has as its target T12, human ROR1 (FZ domain)-Fc (human).
T12 construct: also called Fz-Fc; Frizzle domain
The assay is described as follows: direct ELISA on coated Frizzled domain, panel Binding of P3A1 to human ROR1 domains.

Assay [18] deals with T2, human ROR2-hFc fusion protein …. As to the kind of experiment: direct ELISA, panel Binding to human ROR2-Fc.
The assay “Peptide 5” concerns the target B5. As to the kind of experiment: direct ELISA on coated peptide 5 [continued].
In the next assay the target is T13, D3-[G4S]5-D3 his myc.
T13 construct: VNAR homodimer by genetic fusion; also called D3-D3; D3 dimer
The assay is described as follows: competition ELISA: VNAR pre-incubated with peptide 5, residual binding to coated huROR1-Fc [continued].

In the assay “P3A1 his myc” the target is B4. The assay is described as above.
For assay [19], the target named is T14, B1 VNAR with C-terminal His6Myc tag.
T14 construct: VNAR, E. coli; also called B1 his myc; B1HisMyc monomer
Described as above.

A further assay deals with T15, D3 his myc.
T15 construct: VNAR; made in E. coli and in HEK293 (expression system under assay); also called D3 WT
Described as above.

The target of a further assay is T16, human serum albumin (human, UniProt P02768 25-609).
T16 construct: also called HSA
As to the kind of experiment: ELISA at fixed concentration.

T6 sequence (chain, as listed by the source limits assumed): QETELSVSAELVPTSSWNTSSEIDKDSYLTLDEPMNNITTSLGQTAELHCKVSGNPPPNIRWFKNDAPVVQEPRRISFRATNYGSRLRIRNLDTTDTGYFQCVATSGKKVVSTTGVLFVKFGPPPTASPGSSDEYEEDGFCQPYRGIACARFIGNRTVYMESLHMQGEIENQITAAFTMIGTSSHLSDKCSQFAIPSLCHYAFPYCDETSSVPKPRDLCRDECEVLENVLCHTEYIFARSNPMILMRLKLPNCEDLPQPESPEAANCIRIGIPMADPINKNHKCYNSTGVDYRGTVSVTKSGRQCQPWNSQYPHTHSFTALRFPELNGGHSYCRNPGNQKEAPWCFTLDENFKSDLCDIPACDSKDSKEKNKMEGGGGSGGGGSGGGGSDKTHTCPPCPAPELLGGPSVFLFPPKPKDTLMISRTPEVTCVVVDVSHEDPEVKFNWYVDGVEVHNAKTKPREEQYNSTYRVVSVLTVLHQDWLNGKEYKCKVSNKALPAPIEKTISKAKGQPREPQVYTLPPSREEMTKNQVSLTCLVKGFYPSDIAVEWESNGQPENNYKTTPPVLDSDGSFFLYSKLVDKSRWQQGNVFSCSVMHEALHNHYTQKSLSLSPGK
T1 sequence (chain, as listed by the source limits assumed): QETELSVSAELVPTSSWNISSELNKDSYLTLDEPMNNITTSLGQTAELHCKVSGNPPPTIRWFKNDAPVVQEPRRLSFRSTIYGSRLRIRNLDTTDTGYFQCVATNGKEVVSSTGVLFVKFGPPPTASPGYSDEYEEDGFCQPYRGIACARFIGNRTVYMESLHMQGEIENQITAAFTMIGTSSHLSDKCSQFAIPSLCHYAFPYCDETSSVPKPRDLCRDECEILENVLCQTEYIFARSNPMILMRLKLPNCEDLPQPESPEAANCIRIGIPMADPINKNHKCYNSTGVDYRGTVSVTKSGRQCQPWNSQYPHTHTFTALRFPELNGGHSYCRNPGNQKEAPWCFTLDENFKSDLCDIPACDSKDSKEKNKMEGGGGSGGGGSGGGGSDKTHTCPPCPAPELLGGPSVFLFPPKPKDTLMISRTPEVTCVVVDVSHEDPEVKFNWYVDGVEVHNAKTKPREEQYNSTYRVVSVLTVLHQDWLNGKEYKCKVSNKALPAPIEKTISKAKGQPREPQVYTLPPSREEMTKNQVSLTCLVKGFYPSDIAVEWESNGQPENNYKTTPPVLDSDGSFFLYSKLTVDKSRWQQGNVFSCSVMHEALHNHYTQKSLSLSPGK
T2 sequence (chain, as listed by the source limits assumed): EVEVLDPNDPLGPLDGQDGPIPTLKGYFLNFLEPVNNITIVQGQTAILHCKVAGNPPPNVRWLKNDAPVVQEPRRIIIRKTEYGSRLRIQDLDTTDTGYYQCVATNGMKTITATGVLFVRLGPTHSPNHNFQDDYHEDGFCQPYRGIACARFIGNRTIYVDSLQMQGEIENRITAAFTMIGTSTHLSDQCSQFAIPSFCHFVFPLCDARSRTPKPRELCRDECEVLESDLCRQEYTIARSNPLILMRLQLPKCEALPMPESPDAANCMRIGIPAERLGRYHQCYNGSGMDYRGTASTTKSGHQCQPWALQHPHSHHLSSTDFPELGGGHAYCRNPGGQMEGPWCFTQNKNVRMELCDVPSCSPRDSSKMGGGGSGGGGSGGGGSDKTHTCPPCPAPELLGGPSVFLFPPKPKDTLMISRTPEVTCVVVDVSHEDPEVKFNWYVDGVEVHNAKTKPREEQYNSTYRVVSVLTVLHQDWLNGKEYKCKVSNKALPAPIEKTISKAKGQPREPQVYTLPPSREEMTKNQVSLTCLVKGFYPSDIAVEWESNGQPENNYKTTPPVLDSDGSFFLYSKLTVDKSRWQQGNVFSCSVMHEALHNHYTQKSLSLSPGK
T5 sequence (chain, as listed by the source limits assumed): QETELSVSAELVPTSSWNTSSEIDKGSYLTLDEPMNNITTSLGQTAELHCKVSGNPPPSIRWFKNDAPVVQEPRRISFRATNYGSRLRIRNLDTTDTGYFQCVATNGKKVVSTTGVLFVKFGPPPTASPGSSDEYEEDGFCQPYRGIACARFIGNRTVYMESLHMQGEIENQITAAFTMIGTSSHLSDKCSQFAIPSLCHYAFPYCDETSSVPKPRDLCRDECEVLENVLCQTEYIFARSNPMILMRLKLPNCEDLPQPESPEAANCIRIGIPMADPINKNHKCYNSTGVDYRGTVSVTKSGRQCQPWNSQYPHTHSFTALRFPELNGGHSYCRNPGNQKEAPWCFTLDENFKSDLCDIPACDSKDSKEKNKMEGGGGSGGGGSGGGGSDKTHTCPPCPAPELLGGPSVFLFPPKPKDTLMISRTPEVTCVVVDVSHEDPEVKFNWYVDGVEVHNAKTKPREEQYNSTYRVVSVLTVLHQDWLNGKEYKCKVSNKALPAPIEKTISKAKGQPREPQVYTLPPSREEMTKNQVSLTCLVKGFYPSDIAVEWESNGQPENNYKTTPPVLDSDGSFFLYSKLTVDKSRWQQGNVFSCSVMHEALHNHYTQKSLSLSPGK
T7 sequence (Fc fusion chain, as listed by the source): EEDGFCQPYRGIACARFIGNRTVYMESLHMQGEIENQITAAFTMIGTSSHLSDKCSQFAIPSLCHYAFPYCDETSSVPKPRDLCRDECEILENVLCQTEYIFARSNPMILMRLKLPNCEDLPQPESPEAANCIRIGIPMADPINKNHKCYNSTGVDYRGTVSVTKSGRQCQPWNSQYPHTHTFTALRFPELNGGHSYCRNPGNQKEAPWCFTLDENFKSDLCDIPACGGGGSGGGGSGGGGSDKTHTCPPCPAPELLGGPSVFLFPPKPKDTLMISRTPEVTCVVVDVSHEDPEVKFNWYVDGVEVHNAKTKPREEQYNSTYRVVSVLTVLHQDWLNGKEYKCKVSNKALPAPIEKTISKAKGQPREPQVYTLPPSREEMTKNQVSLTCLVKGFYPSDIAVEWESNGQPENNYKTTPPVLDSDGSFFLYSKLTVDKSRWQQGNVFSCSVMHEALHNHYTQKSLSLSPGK
T12 sequence (chain, as listed by the source limits assumed): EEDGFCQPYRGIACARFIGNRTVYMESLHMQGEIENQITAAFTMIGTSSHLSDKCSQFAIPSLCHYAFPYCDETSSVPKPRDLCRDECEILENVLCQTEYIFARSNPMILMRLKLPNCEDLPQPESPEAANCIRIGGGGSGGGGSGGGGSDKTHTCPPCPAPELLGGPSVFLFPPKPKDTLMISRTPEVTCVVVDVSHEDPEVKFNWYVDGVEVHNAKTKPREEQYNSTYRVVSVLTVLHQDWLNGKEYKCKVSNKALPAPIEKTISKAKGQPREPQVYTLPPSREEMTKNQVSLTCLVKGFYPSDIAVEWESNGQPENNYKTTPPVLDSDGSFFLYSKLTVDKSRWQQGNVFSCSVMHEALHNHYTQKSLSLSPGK

B1: 2V mFc (Fc fusion)
chain: TRVDQTPRTATKETGESLTINCVLTDTSYGLYSTSWFRKNPGTTDWERMSIGGRYVESVNKGAKSFSLRIKDLTVADSATYYCKAQSLAISTRSYWYDGAGTVLTVNGGGGSGGGGSGGGGSEPRGPTIKPCPPCKCPAPNLLGGPSVFIFPPKIKDVLMISLSPIVTCVVVDVSEDDPDVQISWFVNNVEVHTAQTQTHREDYNSTLRVVSALPIQHQDWMSGKEFKCKVNNKDLPAPIERTISKPKGSVRAPQVYVLPPPEEEMTKKQVTLTCMVTDFMPEDIYVEWTNNGKTELNYKNTEPVLDSDGSYFMYSKLRVEKKNWVERNSYSCSVVHEGLHNHHTTKSFSRTPGK
notes: control
With B1, the binding result in assay [1] and in [2] was “no binding” in each case.

B2: CPF7-[G4S]5-CPF7 his myc (VNAR)
chain: TRVDQTPRTATKETGESLTINCVVTGAKYGLFATYWYRKNPGSSNQERISISGRYVESVNKRTMSFSLRIKDLTVADSATYYCKAVFMPQHWHPAAHWYDGAGTVLTVNGGGGSGGGGSGGGGSGGGGSGGGGSTRVDQTPRTATKETGESLTINCVVTGAKYGLFATYWYRKNPGSSNQERISISGRYVESVNKRTMSFSLRIKDLTVADSATYYCKAVFMPQHWHPAAHWYDGAGTVLTVNQASGAHHHHHHGAEFEQKLISEEDL
notes: VNAR homodimer; also called CPF7-CPF7 dimer
As for B2, in assay [3], the binding result was “binds”.

B3: P3A1-[G4S]5-P3A1 his myc (VNAR)
chain: TRVDQTPRTATKETGESLTINCVLTDTSYGLYSTSWFRKNPGTTDWERMSIGGRYVESVNKGAKSFSLRIKDLTVADSATYYCKAREARHPWLRQWYDGAGTVLTVNGGGGSGGGGSGGGGSGGGGSGGGGSTRVDQTPRTATKETGESLTINCVLTDTSYGLYSTSWFRKNPGTTDWERMSIGGRYVESVNKGAKSFSLRIKDLTVADSATYYCKAREARHPWLRQWYDGAGTVLTVNQASGAHHHHHHGAEFEQKLISEEDL
notes: VNAR homodimer by genetic fusion; also called P3A1-P3A1; P3A1 dimer
On to B3, for which the Kd in assay [4] was 0.538 nM; in assay [5], 0.385 nM; in assay [7], 3.08 nM; in [8], 0.3 nM; in assay [9], 0.396 nM; in [10], 0.3 nM. In addition, the Kd amounted to 0.3 nM in [12], 0.35 nM in assay [13], 0.57 nM in assay [14] and 1.61 nM in assay [16]. Also, the koff in [4] worked out at 0.00141 s⁻¹; in [5] it was 0.000628 s⁻¹; in assay [7], 0.00226 s⁻¹; in assay [8], 0.00117 s⁻¹; in assay [9] it was 0.00145 s⁻¹; in [10], 0.00112 s⁻¹. In addition, the koff stood at 0.000637 s⁻¹ in assay [13], 0.00173 s⁻¹ in assay [14], 0.000536 s⁻¹ in assay [15] and 0.00296 s⁻¹ in assay [16]. Besides, the kon was 2.62e+06 M⁻¹ s⁻¹ in assay [4]; 1.63e+06 M⁻¹ s⁻¹ in assay [5]; 734000 M⁻¹ s⁻¹ in assay [7]; 3.78e+06 M⁻¹ s⁻¹ in assay [8]; 4.17e+06 M⁻¹ s⁻¹ in assay [9]; 4.9e+06 M⁻¹ s⁻¹ in [10]. The kon in assay [13] was found to be 2.08e+06 M⁻¹ s⁻¹; in assay [14] it was 3.18e+06 M⁻¹ s⁻¹; in assay [15] it was 1.52e+06 M⁻¹ s⁻¹; in assay [16], 1.86e+06 M⁻¹ s⁻¹. Moreover, the binding result in assay [6] is “no binding”. The “Median YL1-PE” value in assay [11] was 2340.
Take B4: the binding result is “binds” in the assay with Fz-Kr-Fc; “no binding (tested: 1000 ng/ml)” with Peptide 1; “no binding (tested: 1000 ng/ml)” with Peptide 2; “no binding (tested: 1000 ng/ml)” with Peptide 3; “no binding (tested: 1000 ng/ml)” in the assay with Peptide 4; “binds” in assay [17]. For the same molecule, the results for the binding result (in assay [18]; in the assay with Peptide 5) were “no binding (tested: 10 ug/ml)” and “no binding”, respectively. The Kd worked out at 15.9 nM in assay [5]; 14.3 nM in assay [9]; 19.1 nM in [10]; 25.6 nM in [13]; 17.7 nM in [14]; 16.4 nM in assay [15]. In addition, the koff in assay [5] amounted to 0.0411 s⁻¹; in assay [9] it was 0.0408 s⁻¹; in assay [10], 0.0442 s⁻¹; in [13] it was 0.025 s⁻¹; in assay [14] it was 0.045 s⁻¹; in assay [15], 0.032 s⁻¹. Besides, the kon in assay [5] is 2.58e+06 M⁻¹ s⁻¹; in [9], 2.95e+06 M⁻¹ s⁻¹; in assay [10] it was 2.47e+06 M⁻¹ s⁻¹; in assay [13] it was 980000 M⁻¹ s⁻¹; in [14], 2.86e+06 M⁻¹ s⁻¹; in [15], 1.94e+06 M⁻¹ s⁻¹.
B5: the binding result (in the assay with D3-[G4S]5-D3 his myc; in the assay with P3A1 his myc; in [19]; with D3 his myc) was “no binding (tested: 1000 nM)” throughout.

B6: BA11-2V HisMyc (VNAR)
chain: TRVDQSPSSLSASVGDRVTITCVLTDTSYPLYSTYWYRKNPGSSNKEQISISGRYSESVNKGTKSFTLTISSLQPEDSATYYCRAMSTNIWTGDGAGTKVEIKGGGGSGGGGSGGGGSGGGGSGGGGSTRVDQTPRTATKETGESLTINCVLTDTSYGLYSTSWFRKNPGTTDWERMSIGGRYVESVNKGAKSFSLRIKDLTVADSATYYCKAQSLAISTRSYWYDGAGTVLTVNQASGAHHHHHHGAEFEQKLISEEDL
As for B6, in the assay with human serum albumin, the binding result is reported as “binds”.
